Experimental data as given in patent publication US20080058263A1 (published 2008).

B1: 32-14 (ligand)
chain: GQNHHEVVKSIDNEWRKTQCMPIETLVDIFQEFGVATNTFFKPPCVSVYRCGGCCNDEGLECMNTSTSYLSKTLFEITVPLSQGPKPVTISFANHTSCRCMSKLD
notes: clone entry
B2: 32-16 (ligand)
chain: GQNHHEVVKSIDNEWRKTQCMPIETLVDIFQEFGVATNTFFKPPCVSVYRCGGCCNSEGLQCMNTSTSYLSKTLFEITVPLSQGPKPVTISFANHTSCRCMSKLD
B3: 52-9 (ligand)
chain: AHYNTEILKSIDNEWRKTQCMPIETLVDIFQEFGVATNTFFKPPCVSVYRCGGCCNDEGLECVPTEESNITMQIMRITVPLSQGPKPVTISFLQHNKCECRPKKD
B4: 52-11 (ligand)
chain: AHYNTEILKSIDNEWRKTQCMPIETLVDIFQEFGVATNTFFKPPCVSVYRCGGCCNSEGLQCVPTEESNITMQIMRITVPLSQGPKPVTISFLQHNKCECRPKKD
B5: 83-13 (ligand)
chain: AHYNTEILKFMDVYQRSYCHPIETLVDIFQEYPDEIEYIFKPPCVSVYRCGGCCNDEGLECVPTEESNITMQIMRITVPLSQGPKPVTISFANHTSCRCMSKLD
B6: 72-9 (ligand)
chain: GQNHHEVVKSIDNEWRKTQCMPREVCIDVGKEFGVATNTFFKPPCVSVYRCGGCCNDEGLECVPTEESNITMQIMRITVPLSQGPKPVTISFLQHNKCECRPKKD
B7: 72-13 (ligand)
chain: GQNHHEVVKSIDNEWRKTQCMPREVCIDVGKEFGVATNTFFKPPCVSVYRCGGCCNDEGLECVPTEESNITMQIMRITVPLSQGPKPVTISFANHTSCRCMSKLD
B8: 71-9 (ligand)
chain: GQNHHEVVKSIDNEWRKTQCMPREVCIDVGKEYPDEIEYIFKPSCVPLMRCGGCCNDEGLECVPTEESNITMQIMRITVPLSQGPKPVTISFLQHNKCECRPKKD
B9: 74-13 (ligand)
chain: GQNHHEVVKSIDNEWRKTQCMPREVCIDVGKEFGVATNTFFKPSCVPLMRCGGCCNDEGLECVPTEESNITMQIMRITVPLSQGPKPVTISFANHTSCRCMSKLD
B10: 32-9 (ligand)
chain: GQNHHEVVKSIDNEWRKTQCMPIETLVDIFQEFGVATNTFFKPPCVSVYRCGGCCNDEGLECVPTEESNITMQIMRITVPLSQGPKPVTISFLQHNKCECRPKKD
B11: 24-9 (ligand)
chain: AHYNTEILKSIDNEWRKTQCMPREVCIDVGKEFGVATNTFFKPSCVPLMRCGGCCNDEGLECVPTEESNITMQIMRITVPLSQGPKPVTISFLQHNKCECRPKKD
B12: 72-15 (ligand)
chain: GQNHHEVVKSIDNEWRKTQCMPREVCIDVGKEFGVATNTFFKPPCVSVYRCGGCCNSEGLQCVPTEESNITMQIMRITVPLSQGPKPVTISFANHTSCRCMSKLD
B13: 34-9 (ligand)
chain: GQNHHEVVKSIDNEWRKTQCMPIETLVDIFQEFGVATNTFFKPSCVPLMRCGGCCNDEGLECVPTEESNITMQIMRITVPLSQGPKPVTISFLQHNKCECRPKKD
B14: 22-11 (ligand)
chain: AHYNTEILKSIDNEWRKTQCMPREVCIDVGKEFGVATNTFFKPPCVSVYRCGGCCNSEGLQCVPTEESNITMQIMRITVPLSQGPKPVTISFLQHNKCECRPKKD
B15: 22-9 (ligand)
chain: AHYNTEILKSIDNEWRKTQCMPREVCIDVGKEFGVATNTFFKPPCVSVYRCGGCCNDEGLECVPTEESNITMQIMRITVPLSQGPKPVTISFLQHNKCECRPKKD
B16: 32-11 (ligand)
chain: GQNHHEVVKSIDNEWRKTQCMPIETLVDIFQEFGVATNTFFKPPCVSVYRCGGCCNSEGLQCVPTEESNITMQIMRITVPLSQGPKPVTISFLQHNKCECRPKKD
B17: 53-1 (ligand)
chain: AHYNTEILKSIDNEWRKTQCMPIETLVDIFQEYPDEIEYIFKPPCVSVYRCGGCCNDEGLECVPTEESNITMQIMRIKPHQGQHIGEMSFLQHNKCECRPKKD
B18: 83-15 (ligand)
chain: AHYNTEILKFMDVYQRSYCHPIETLVDIFQEYPDEIEYIFKPPCVSVYRCGGCCNSEGLQCVPTEESNITMQIMRITVPLSQGPKPVTISFANHTSCRCMSKLDL
notes: clone entry
B19: 32-15 (ligand)
chain: GQNHHEVVKSIDNEWRKTQCMPIETLVDIFQEFGVATNTFFKPPCVSVYRCGGCCNSEGLQCVPTEESNITMQIMRITVPLSQGPKPVTISFANHTSCRCMSKLD
B20: 52-15 (ligand)
chain: AHYNTEILKSIDNEWRKTQCMPIETLVDIFQEFGVATNTFFKPPCVSVYRCGGCCNSEGLQCVPTEESNITMQIMRITVPLSQGPKPVTISFANHTSCRCMSKLD
notes: clone entry

Tests used:
Assay in all cases: receptor-Fc IP
VEGFR-1-Fc = target: T1, VEGFR-1-Fc (UniProt P17948 27-338)
T1 construct: domain: first three Ig domains; expressed in Drosophila S2 cells, purified on Protein A sepharose; also called VEGFR-1-Fc fusion protein; not shown: Fc fragment from the Signal-pIgPlus vector
Summary of the method: (§1)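 fusion protein at 400 ng/ml in an IP mix (PBS, 1.5% BSA, 0.06% Tween 20, 3 μg/ml heparin) was combined with sample supernatant at a 1:2 ratio. Bound ligand captured by immunoprecipitation with pentahistidine antibody.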

VEGFR-2-Fc = target: T2, VEGFR-2-Fc (UniProt P35968 20-322)
T2 construct: domain: first 3 Ig domains; conditioned supernatant of 293T cells; also called VEGFR-2-Fc fusion protein; not shown: Fc fragment of the pIg vector
Summary of the method: as §1

VEGFR-3-Fc = target: T3, VEGFR-3-Fc (UniProt P35916 25-328)
T3 construct: domain: first three Ig domains; conditioned supernatant of 293T cells; also called VEGFR-3-Fc fusion protein; not shown: Fc fragment of the pIg vector
T3 sequence (looked up): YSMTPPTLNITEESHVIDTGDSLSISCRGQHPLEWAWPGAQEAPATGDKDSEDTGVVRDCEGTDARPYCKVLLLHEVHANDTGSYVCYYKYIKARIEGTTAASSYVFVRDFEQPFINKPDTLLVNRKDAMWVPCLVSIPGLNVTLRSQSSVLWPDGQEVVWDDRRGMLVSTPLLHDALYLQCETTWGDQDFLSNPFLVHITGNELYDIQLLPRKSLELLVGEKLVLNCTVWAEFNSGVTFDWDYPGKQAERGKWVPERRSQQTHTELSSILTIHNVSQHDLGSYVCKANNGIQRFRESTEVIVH
Summary of the method: as §1

T1 sequence (P17948 27-338): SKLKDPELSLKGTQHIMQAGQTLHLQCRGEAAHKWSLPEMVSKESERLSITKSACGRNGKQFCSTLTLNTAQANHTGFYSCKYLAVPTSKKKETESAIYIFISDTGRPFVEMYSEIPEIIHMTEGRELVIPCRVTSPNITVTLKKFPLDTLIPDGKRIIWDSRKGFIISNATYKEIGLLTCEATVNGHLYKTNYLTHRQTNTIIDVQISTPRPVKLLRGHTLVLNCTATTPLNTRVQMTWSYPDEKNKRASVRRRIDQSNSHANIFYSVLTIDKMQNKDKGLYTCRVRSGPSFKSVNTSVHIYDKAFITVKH
T2 sequence (P35968 20-322): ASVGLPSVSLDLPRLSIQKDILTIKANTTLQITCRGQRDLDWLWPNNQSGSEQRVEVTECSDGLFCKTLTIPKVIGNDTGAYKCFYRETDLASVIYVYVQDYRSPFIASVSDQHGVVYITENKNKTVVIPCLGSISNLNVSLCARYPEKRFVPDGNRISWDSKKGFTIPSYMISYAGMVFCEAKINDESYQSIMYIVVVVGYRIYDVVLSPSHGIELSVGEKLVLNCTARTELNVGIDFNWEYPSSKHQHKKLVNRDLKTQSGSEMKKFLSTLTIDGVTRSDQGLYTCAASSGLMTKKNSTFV

| Binder | binding result (VEGFR-1-Fc) | binding result (VEGFR-2-Fc) | binding result (VEGFR-3-Fc) |
| --- | --- | --- | --- |
| B1 | no binding | no binding | binds |
| B2 | no binding | no binding | binds |
| B3 | no binding | no binding | binds |
| B4 | no binding | no binding | binds |
| B5 | binds | no binding | no binding |
| B6 | no binding | no binding | no binding |
| B7 | no binding | no binding | no binding |
| B8 | no binding | no binding | no binding |
| B9 | no binding | no binding | no binding |
| B10 | no binding | no binding | binds |
| B11 | no binding | no binding | no binding |
| B12 | no binding | no binding | no binding |
| B13 | no binding | no binding | no binding |
| B14 | no binding | no binding | no binding |
| B15 | no binding | no binding | no binding |
| B16 | no binding | no binding | binds |
| B17 | no binding | binds | no binding |
| B18 | binds | binds | no binding |
| B19 | no binding | no binding | binds |
| B20 | no binding | no binding | binds |
